According to US7919262B2, “14-3-3 proteins for diagnosis of Parkinson's disease” (The UAB Research Foundation, priority 2007, dated 2011):

B1: 14-3-3σ: 14-3-3 polypeptide σ isoform, overexpressed from expression vector (protein, UniProt P31947 1-248, looked up)
14-3-3 protein sigma: MERASLIQKAKLAEQAERYEDMAAFMKGAVEKGEELSCEERNLLSVAYKNVVGGQRAAWRVLSSIEQKSNEEGSEEKGPEVREYREKVETELQGVCDTVLGLLDSHLIKEAGDAESRVFYLKMKGDYYRYLAEVATGDDKKRIIDSARSAYQEAMDISKKEMPPTNPIRLGLALNFSVFHYEIANSPEEAISLAKTTFDEAMADLHTLSEDSYKDSTLIMQLLRDNLTLWTADNAGEEGGEAPQEPQS
B2: 14-3-3β: 14-3-3 polypeptide β isoform, overexpressed from expression vector (protein, UniProt P31946 1-246, looked up)
14-3-3 protein beta/alpha: MTMDKSELVQKAKLAEQAERYDDMAAAMKAVTEQGHELSNEERNLLSVAYKNVVGARRSSWRVISSIEQKTERNEKKQQMGKEYREKIEAELQDICNDVLELLDKYLIPNATQPESKVFYLKMKGDYFRYLSEVASGDNKQTTVSNSQQAYQEAFEISKKEMQPTHPIRLGLALNFSVFYYEILNSPEKACSLAKTAFDEAIAELDTLNEESYKDSTLIMQLLRDNLTLWTSENQGDEGDAGEGEN
B3: 14-3-3η: 14-3-3 polypeptide η isoform, overexpressed from expression vector (protein, UniProt Q04917 2-246, looked up)
14-3-3 protein eta: GDREQLLQRARLAEQAERYDDMASAMKAVTELNEPLSNEDRNLLSVAYKNVVGARRSSWRVISSIEQKTMADGNEKKLEKVKAYREKIEKELETVCNDVLSLLDKFLIKNCNDFQYESKVFYLKMKGDYYRYLAEVASGEKKNSVVEASEAAYKEAFEISKEQMQPTHPIRLGLALNFSVFYYEIQNAPEQACLLAKQAFDDAIAELDTLNEDSYKDSTLIMQLLRDNLTLWTSDQQDEEAGEGN

How the values were obtained:
[1] = system: SK-N-BE(2)-M17 (M17) cells; assay: Rotenone toxicity in stably transfected cell lines, LDH release; type: cell-based; conditions: stable overexpression, 48 hours; for protection against rotenone toxicity (LDH release): rotenone at varying concentrations
Experimental: Cell lines stably-transfected with either 14-3-3θ or empty vector were treated with varying concentrations of rotenone (0-25 μM) for 24 hours (FIG. 6A), 30 hours (FIG. 6B), or 48 hours (FIG. 6C). Cell death was assayed by LDH release into the culture media. LDH release into media was normalized to total LDH release for each well. […] Rater was blind to experimental condition. n=8 for each experimental condition. *p<0.05, ***p<0.001 (Bonferroni's multiple comparison test).
(§1) M17 cell lines stably-transfected with either a 14-3-3 isoform or empty vector were treated with varying concentrations of rotenone (0-25 μM) for 48 hours. Cell death was assayed by LDH release into the culture media. LDH release into media was normalized to total LDH release for each well. […] Results reflect two to three independent experiments with at least two replicates per experiment. *p<0.05, **p<0.01, ***p<0.001 (Bonferroni's multiple comparison test).
Additional studies were performed to evaluate the effect of 14-3-3 polypeptide isoforms in mammalian cells. In these studies, cDNA clones for the 14-3-3 polypeptide β, γ, ε, η, θ, and σ isoforms were subcloned into the mammalian expression vector pcDNA 3.1/V5/His (Invitrogen). The polypeptide expressed from this vector contains the particular 14-3-3 isoform with a V5 and a His6 tag at the C-terminal end. […] SK-N-BE(2)-M17 (M17) cells, a dopaminergic-producing human neuroblastoma cell line, were transfected with each isoform or empty vector using Superfect, and stably-transfected cells were selected for in the presence of G418.
The M17 14-3-3θ clones were examined for their resistance to rotenone (0-25 μM). M17 cell lines stably transfected with either 14-3-3θ or empty vector were treated with rotenone for 24 (FIG. 6A), 30 (FIG. 6B) or 48 hours (FIG. 6C). Cell death was assayed by […] (LDH) release into the culture media using the LDH assay kit from Roche. LDH release into media was normalized to total LDH release for each well. Results reflect three independent experiments with at least two replicates per experiment.
Stable M17 cell lines overexpressing these other isoforms were treated with rotenone at varying concentrations, and then cell death was assayed at 48 hours by LDH release. […]

H4 cells = assay: α-syn toxicity assay, adenylate kinase released into the media; type: cell-based; conditions: co-transfected with wildtype α-syn; 24 hours after transfection; vs empty vector
Experimental: Briefly, H4 cells were transfected with wildtype α-syn and each of the 14-3-3 polypeptide isoforms or empty vector controls as discussed above. Twenty-four hours after transfection, cell death was assayed by adenylate kinase activity in the media (n=4, *p<0.05, **p<0.01, ***p<0.001).
Primers against each of the human 14-3-3 isoforms were designed using Primer3. Primers against 14-3-3β (NM_018753) were 5′ […] 3′ (forward; SEQ ID NO. 9) and 5′ […] 3′ (reverse; SEQ ID NO. 10). Primers against 14-3-3ε (NM_009536) were 5′ […] 3′ (forward; SEQ ID NO. 11) and 5′ […] 3′ (reverse; SEQ ID NO. 12). Primers against 14-3-3γ (NM_018871) were 5′ […] 3′ (forward; SEQ ID NO. 13) and 5′ […] 3′ (reverse; SEQ ID NO. 14). Primers against 14-3-3η (NM_011738) were 5′ […] 3′ (forward; SEQ ID NO. 15) and 5′ […] 3′ (reverse; SEQ ID NO. 16). Primers against 14-3-3θ (NM_011739) were 5′ […] 3′ (forward; SEQ ID NO. 17) and 5′ […] 3′ (reverse; SEQ ID NO. 18). Primers against 14-3-3σ (NM_018754) were 5′ […] 3′ (forward; SEQ ID NO. 19) and 5′ […] 3′ (reverse; SEQ ID NO. 20). Primers against 14-3-3ζ(NM_011740) were 5′ […] 3′ (forward; SEQ ID NO. 21) and 5′ […] 3′ (reverse; SEQ ID NO. 22). Primers against GAPDH were 5′ tggtgaagcaggeatctga 3′ (forward; SEQ ID NO. 23) and 5′ […] […] All cells stained for α-syn were scored as positive or negative for α-syn aggregates, with the rater blind to experimental condition. • α-syn toxicity assay H4 cells were transfected with α-syn and either empty vector control or a 14-3-3 isoform using Superfect transfection reagent (Qiagen). 24 hours after transfection, toxicity was measured by the amount of adenylate kinase released into the media using the ToxiLight™ kit (Cambrex). • Creation of stable cell lines Each 14-3-3 isoform was subcloned into the mammalian expression vector mcDNA3.1/V5-His (Invitrogen). […] Protein concentrations of supernatants were determined by the bicinchoninic acid assay (BCA; Pierce, Rockford, Ill.). […]

M17 cells = assay: MPP+ toxicity in stably transfected cell lines, LDH release; type: cell-based, human; conditions: stable overexpression; MPP+ 0-10 mM; 24 hours
Experimental: as §1, with “Cell” for “M17 cell”, “MPP+” for “rotenone (0-25 μM)”, “24” for “48”, “well. Lines overexpressing 14-3-3θ (FIG. 9A), 14-3-3ε (FIG. 9B), or 14-3-3γ (FIG. 9C) were more resistant to MPP+ in a dose-dependent manner compared to control stable cells.” for “well.”, “experiment.” for “experiment. *p<0.05,”
The 14-3-3 expressing M17 clones were also tested for resistance to the neurotoxin 1-methyl-4-phenylpyridinium ion (MPP+), which is a metalbolite of 1-methyl-4-phenyl-1,2,3,6-tetrahydropyridine (MPTP). M17 cells expressing the 14-3-3 isoforms were prepared as described. M17 cells were treated with MPP+ (0-10 mM) for 24 hours (FIGS. 9A-G). Cell death was assayed by LDH release into the culture media as described above.
Primers against each of the human 14-3-3 isoforms were designed using Primer3. Primers against 14-3-3β (NM_018753) were 5′ […] 3′ (forward; SEQ ID NO. 9) and 5′ […] 3′ (reverse; SEQ ID NO. 10). Primers against 14-3-3ε (NM_009536) were 5′ […] 3′ (forward; SEQ ID NO. 11) and 5′ […] 3′ (reverse; SEQ ID NO. 12). Primers against 14-3-3γ (NM_018871) were 5′ […] 3′ (forward; SEQ ID NO. 13) and 5′ […] 3′ (reverse; SEQ ID NO. 14). Primers against 14-3-3η (NM_011738) were 5′ […] 3′ (forward; SEQ ID NO. 15) and 5′ […] 3′ (reverse; SEQ ID NO. 16). Primers against 14-3-3θ (NM_011739) were 5′ […] 3′ (forward; SEQ ID NO. 17) and 5′ […] 3′ (reverse; SEQ ID NO. 18). Primers against 14-3-3σ (NM_018754) were 5′ […] 3′ (forward; SEQ ID NO. 19) and 5′ […] 3′ (reverse; SEQ ID NO. 20). Primers against 14-3-3ζ(NM_011740) were 5′ […] 3′ (forward; SEQ ID NO. 21) and 5′ […] 3′ (reverse; SEQ ID NO. 22). Primers against GAPDH were 5′ tggtgaagcaggeatctga 3′ (forward; SEQ ID NO. 23) and 5′ […] 3′ (reverse; SEQ ID NO. 24) and were used to normalize PCR results. • α-syn aggregation assay H4 cells were transfected with synphilin, α-syn/green fluorescent protein (synT), and either empty vector control or a 14-3-3 isoform using Superfect transfection reagent (Qiagen). 24 hours after transfection, cells were fixed with 4% paraformaldehyde and immunostained with a monoclonal antibody against α-syn (BD Transduction) and a secondary Alexa 488-conjugated goat anti-mouse antibody (Molecular Probes). All cells stained for α-syn were scored as positive or negative for α-syn aggregates, with the rater blind to experimental condition. • α-syn toxicity assay H4 cells were transfected with α-syn and either empty vector control or a 14-3-3 isoform using Superfect transfection reagent (Qiagen). 24 hours after transfection, toxicity was measured by the amount of adenylate kinase released into the media using the ToxiLight™ kit (Cambrex). • Creation of stable cell lines Each 14-3-3 isoform was subcloned into the mammalian expression vector mcDNA3.1/V5-His (Invitrogen). BE(2)-M17 cells were transfected with each isoform or empty vector using Superfect, and stably-transfected cells were selected for in the presence of G418. […] Protein concentrations of supernatants were determined by the bicinchoninic acid assay (BCA; Pierce, Rockford, Ill.). […]

Molecule	protection against rotenone toxicity (LDH release) [1]	effect on α-syn dependent cell death (adenylate kinase activity in the media) (H4 cells)	rotenone-induced cell death, % of that in control cells ([1]; 1 μM rotenone, LDH release) [%]	protection against MPP+ toxicity (LDH release) (M17 cells)
B1	did not provide any protection	protective effects		
B2	some protection		75	did not show any significant protection
B3	did not provide any protection			
